Laboratory results from patent US20120263728A1.
Substitutions are numbered along the chain they refer to.

B1: CA167_01080 (antibody, from another filing, rabbit IgG1, V domains shown)
VH: QSLEESGGRLVTPETPLTLTCTASGIDLSKWPMTWVRQAPGKGLEWIGIIGRSGSTNYASWAKGRFTISKTSTTVDLKMTSPTTEDTATYFCARGGSYYDLWGQGTLVTVS
VL: AQVLTQTASPVSAAVGNTVTITCQSSQSVWKNNDLSWYQQKLGQPPKLLIYYASTLASGVSSRFKASGSGTQFTLTISDVQCDDAGTYYCVGSYDCSSADCNAFGGGTKVVVK
B2: CA167_00983 (antibody, from another filing, rabbit IgG1, V domains shown)
VH: QSVEESGGRLVTPGTPLTLTCTVSGFSLSNYAMSWVRQAPGKGLEWIGIIGKSGSTAYASWAKGRFTISRTSTTVDLEITSPTTEDTATYFCVRFVLLWGPGTLVTVS
VL: B1 VL with N17G, T22N, W30Y, S36A, L42P, A66G, Q72E, V80A, G86A, V91L
B3: CA167_00932 (antibody, from another filing, rabbit IgG1, V domains shown)
VH: QSLEESGGRLVTPGTPLTLTCTVSGFSLSRYWMSWVRQAPGKGLEWIGNIGGGSGSTLYAPWAKGRSTISKTSTTVDLKITSPTTEDTATYFCGRYVKNGGGYRLDLWGPGTLVTVS
VL: AAVLTQTPSSVSAAVGGTVTIKCQSSQSVYNNNEFSWYQQKPGQPPKLLIYDASKLASGVPSRFSGSGSGTQFTLTISGVQCDDVATYYCLGGYNDDTNRWAFGGGTEVVVE

Key:
[1] = molecular target: recombinant rat Nav1.7 channels expressed in HEK cells (rat) (UniProt O08562); test: cell-based or functional assay
[2] = molecular target: human Nav1.7 channel (type IX voltage-gated sodium channel alpha subunit) (human) (UniProt Q15858); test: cell-based or functional assay

Chain of UniProt O08562 (O08562 whole entry): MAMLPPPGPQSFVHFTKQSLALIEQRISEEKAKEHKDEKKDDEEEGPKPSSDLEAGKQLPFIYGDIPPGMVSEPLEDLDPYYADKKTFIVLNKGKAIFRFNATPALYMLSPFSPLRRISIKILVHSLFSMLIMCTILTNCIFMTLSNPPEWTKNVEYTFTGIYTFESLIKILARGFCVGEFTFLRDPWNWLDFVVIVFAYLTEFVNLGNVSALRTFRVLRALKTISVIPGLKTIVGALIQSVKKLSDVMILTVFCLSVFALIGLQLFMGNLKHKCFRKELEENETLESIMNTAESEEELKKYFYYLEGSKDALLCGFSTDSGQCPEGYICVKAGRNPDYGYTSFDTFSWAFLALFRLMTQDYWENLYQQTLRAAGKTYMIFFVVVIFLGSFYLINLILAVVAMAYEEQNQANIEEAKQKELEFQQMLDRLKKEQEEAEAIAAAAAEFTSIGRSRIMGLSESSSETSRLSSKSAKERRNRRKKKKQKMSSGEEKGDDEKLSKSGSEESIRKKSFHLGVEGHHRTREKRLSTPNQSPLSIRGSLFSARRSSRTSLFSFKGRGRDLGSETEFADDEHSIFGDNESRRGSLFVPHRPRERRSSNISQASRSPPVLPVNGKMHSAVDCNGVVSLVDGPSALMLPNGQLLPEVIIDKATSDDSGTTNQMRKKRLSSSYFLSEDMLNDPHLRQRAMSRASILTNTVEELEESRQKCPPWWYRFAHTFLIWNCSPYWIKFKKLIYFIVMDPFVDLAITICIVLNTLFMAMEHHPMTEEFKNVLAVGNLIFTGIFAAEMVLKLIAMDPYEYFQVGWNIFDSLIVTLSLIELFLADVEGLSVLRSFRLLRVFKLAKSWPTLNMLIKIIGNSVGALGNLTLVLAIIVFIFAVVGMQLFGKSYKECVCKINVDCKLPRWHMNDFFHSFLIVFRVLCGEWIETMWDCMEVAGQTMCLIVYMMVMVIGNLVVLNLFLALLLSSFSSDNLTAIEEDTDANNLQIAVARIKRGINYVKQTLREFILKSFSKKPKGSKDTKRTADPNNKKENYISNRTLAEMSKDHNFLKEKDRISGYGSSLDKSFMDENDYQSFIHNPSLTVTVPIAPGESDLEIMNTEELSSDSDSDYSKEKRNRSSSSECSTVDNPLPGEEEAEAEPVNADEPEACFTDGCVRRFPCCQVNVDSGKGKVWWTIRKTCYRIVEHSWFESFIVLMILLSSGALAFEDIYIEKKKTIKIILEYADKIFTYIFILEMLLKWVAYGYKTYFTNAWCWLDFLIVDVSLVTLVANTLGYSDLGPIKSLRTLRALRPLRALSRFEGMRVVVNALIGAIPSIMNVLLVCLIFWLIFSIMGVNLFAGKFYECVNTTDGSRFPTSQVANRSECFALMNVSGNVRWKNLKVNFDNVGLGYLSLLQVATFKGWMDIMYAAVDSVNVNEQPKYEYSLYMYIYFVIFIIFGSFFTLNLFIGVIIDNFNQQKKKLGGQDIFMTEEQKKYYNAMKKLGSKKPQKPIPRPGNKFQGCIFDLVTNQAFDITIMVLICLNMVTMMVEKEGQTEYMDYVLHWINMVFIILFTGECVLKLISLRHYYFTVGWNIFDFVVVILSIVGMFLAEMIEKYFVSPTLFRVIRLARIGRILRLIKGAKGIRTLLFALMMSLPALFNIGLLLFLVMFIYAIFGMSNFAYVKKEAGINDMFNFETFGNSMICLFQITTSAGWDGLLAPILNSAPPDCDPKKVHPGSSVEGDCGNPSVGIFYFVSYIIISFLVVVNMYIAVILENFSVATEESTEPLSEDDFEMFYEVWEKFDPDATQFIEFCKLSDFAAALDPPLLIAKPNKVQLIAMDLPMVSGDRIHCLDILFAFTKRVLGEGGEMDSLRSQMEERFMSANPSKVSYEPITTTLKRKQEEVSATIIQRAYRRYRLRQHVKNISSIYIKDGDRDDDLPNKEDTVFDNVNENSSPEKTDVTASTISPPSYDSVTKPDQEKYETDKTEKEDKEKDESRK

Binder	inhibition of Nav1.7 currents at 25 µg/ml, automated Patch Clamp [1] [%]	Nav1.7 inhibition (%) at 25 µg/ml, automated patch clamp on HEK cells [2] [%]
B1	26	46
B2	–	41
B3	–	27
